US20230357378A1 (NEURACLE SCIENCE, published 2023)

B1: 1-65-scFv-rabbit-Fc-SSS (Fc fusion)
VH: AVTLDESGGGLQTPGGALSLVCKASGFTFSSYQMGWVRQAPGKGLEWVGVINKSGSDTSYGSAVKGRATISRDNGQSTVRLQLNNLRAEDTGTYFCAKGSASYITAATIDAWGHGTEVIVSS
VL: ALTQPSSVSANPGETVKITCSGGGSSGYGYGWYQQKSPSSAPLTVIYWNDKRPSDIPSRFSGSKSGSTHTLTITGVQAEDEAVYFCGNDDYSSDSGYVGVFGAGTTLTVL
notes: scFv of 1-65 fused to rabbit Fc ('SSS'), used as primary antibody in the Western blot; also called anti-FAM19A5 antibody 1-65; monoclonal antibody clone 1-65
B2: chimeric anti-FAM19A5-IgG2/4 monoclonal antibody (1-65) (antibody, V domains shown)
VH: B1 VH
VL: B1 VL
notes: also called anti-FAM19A5-IgG2/4 antibody

Assays:
Peptide F1-BSA = molecular target: T1, Peptide F1-BSA (C-terminal Cys conjugated to BSA); assay: Western blot, 300 ng antigen per well, anti-rabbit IgG (Fc specific)-HRP 1:4000
T1 construct: BSA-conjugated human FAM19A5 peptide fragment F1, lane 3; size printed as 105 kDa
T1 peptide: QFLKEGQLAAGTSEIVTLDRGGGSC

Peptide F4-BSA = molecular target: T2, Peptide F4-BSA (C-terminal Cys conjugated to BSA); assay: as above
T2 construct: BSA-conjugated human FAM19A5 peptide fragment F4, lane 6; size printed as 106 kDa
T2 peptide: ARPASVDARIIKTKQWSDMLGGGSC

Peptide F6-BSA = molecular target: T3, Peptide F6-BSA (C-terminal Cys conjugated to BSA); assay: as above
T3 construct: BSA-conjugated human FAM19A5 peptide fragment F6, lane 8; size printed as 103 kDa
T3 peptide: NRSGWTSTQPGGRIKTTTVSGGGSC

FAM19A1-flag = assay: immunoblot of vector and flag-tagged FAM19A1 to FAM19A5 samples

Binder | binding result (Peptide F1-BSA) | binding result (Peptide F4-BSA) | binding result (Peptide F6-BSA) | binding result (FAM19A1-flag)
B1 | no binding (tested: 2 ug/ml) | no binding (tested: 2 ug/ml) | no binding (tested: 2 ug/ml) | 
B2 |  |  |  | no binding
